Assay results reported in patent publication US9051577 (GREENOVATION BIOTECH, dated 2015).

B1: IGN311, humanized monoclonal IgG anti-Lewis Y antibody (parental, expressed in SP 2.0 cells) (antibody, V domains shown)
VH: EVQLLESGGGLVQPGGSLRLSCAASGFTFSDYYMYWVRQAPEKRLEWVAYISNGGGSSHYVDSVKGRFTISRDNSKNTLYLQMNSLRAEDTALYHCARGMDYGAWFAYWGQGTLVTVSS
VL: DIVMTQSPLSLPVTPGEPASISCRSSQSIVHSNGNTYLEWYLQKPGQSPQLLISKVSNRFSGVPDRFSGSGSGTDFTLKISRVEAEDVGVYYCFQGSHVPFTFGQGTKLEIK
modifications: N-glycan at Asn297 almost completely core-fucosylated, with terminal galactosylation; C-terminal lysine of the heavy chain partly present (both SLSLSPG and SLSLSPGK detected)

Tests used:
Test in all cases: cell-based or functional assay
[1] = target: Fcgamma-RIII receptor (CD16) on human PBMC effector cells, 158 genotype of the donor not stated (human) (UniProt P08637)
Sequence of Fcgamma-RIII receptor (CD16) on human PBMC effector cells, 158 genotype of the donor not stated (human) (P08637 17-254): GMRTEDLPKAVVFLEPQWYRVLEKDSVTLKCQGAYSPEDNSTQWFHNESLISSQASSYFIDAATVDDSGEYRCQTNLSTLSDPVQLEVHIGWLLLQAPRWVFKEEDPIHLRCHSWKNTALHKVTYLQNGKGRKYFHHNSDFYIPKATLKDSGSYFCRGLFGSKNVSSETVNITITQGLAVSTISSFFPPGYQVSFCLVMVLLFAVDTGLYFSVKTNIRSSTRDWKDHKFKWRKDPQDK

[2] = target: CD16 (FcgammaRIIIa) 158F/F, low affinity phenotype, on effector cells (PBMC/NK) of a human donor (human) (UniProt P08637)
Sequence of CD16 (FcgammaRIIIa) 158F/F, low affinity phenotype, on effector cells (PBMC/NK) of a human donor (human) (P08637 17-254): as above

[3] = target: CD16 (FcgammaRIIIa) 158V/V, high affinity phenotype, on effector cells (PBMC/NK) of a human donor (human) (UniProt P08637)
Sequence of CD16 (FcgammaRIIIa) 158V/V, high affinity phenotype, on effector cells (PBMC/NK) of a human donor (human) (P08637 17-254 F176V): as the sequence (P08637 17-254) above, with F160V counted along it

[4] = target: Fcgamma-RIII receptor (CD16) on human PBMC effector cells, 158 genotype of the donor not stated (human, UniProt P08637 17-254)
Sequence of Fcgamma-RIII receptor (CD16) on human PBMC effector cells, 158 genotype of the donor not stated (P08637 17-254): as the sequence (P08637 17-254) above

[5] = target: CD16 (FcgammaRIIIa) 158F/F, low affinity phenotype, on effector cells (PBMC/NK) of a human donor (human, UniProt P08637 17-254)
Sequence of CD16 (FcgammaRIIIa) 158F/F, low affinity phenotype, on effector cells (PBMC/NK) of a human donor (P08637 17-254): as above

[6] = target: CD16 (FcgammaRIIIa) 158V/V, high affinity phenotype, on effector cells (PBMC/NK) of a human donor (human, UniProt P08637 17-254)
Sequence of CD16 (FcgammaRIIIa) 158V/V, high affinity phenotype, on effector cells (PBMC/NK) of a human donor (P08637 17-254 F176V): as the sequence (P08637 17-254) above, with F160V counted along it

Row | Molecule | EC50 of ADCC lysis of SK-BR-3 cells by human PBMC in 10% FCS [1] [µg/mL] | EC50 of ADCC lysis of SK-BR-3 cells by human PBMC in 40% NHS [1] [µg/mL] | EC50 of ADCC lysis (51Cr release), OVCAR-3 target cells, CD16158 F/F effector cells [2] [µg/mL] | Enhancement (ADCC EC50 of IGN311 against IGN314), OVCAR-3, F/F effector cells [2] [fold] | EC50 of ADCC lysis (51Cr release), OVCAR-3 target cells, CD16158 V/V effector cells [3] [µg/mL] | EC50 of ADCC lysis (51Cr release), SK-BR-3 target cells, CD16158 V/V effector cells [3] [µg/mL] | EC50 of ADCC lysis (51Cr release), TF-1 target cells, CD16158 V/V effector cells [3] [µg/mL] | Enhancement (ADCC EC50 of IGN311 against IGN314), OVCAR-3, V/V effector cells [3] [fold] | Enhancement (ADCC EC50 of IGN311 against IGN314), SK-BR-3, V/V effector cells [3] [fold] | Enhancement (ADCC EC50 of IGN311 against IGN314), TF-1, V/V effector cells [3] [fold] | EC50 of ADCC lysis of SK-BR-3 cells by human PBMC in 10% FCS [4] [µg/mL] | EC50 of ADCC lysis of SK-BR-3 cells by human PBMC in 40% NHS [4] [µg/mL] | EC50 of ADCC lysis (51Cr release), OVCAR-3 target cells, CD16158 F/F effector cells [5] [µg/mL] | EC50 of ADCC lysis (51Cr release), OVCAR-3 target cells, CD16158 V/V effector cells [6] [µg/mL] | EC50 of ADCC lysis (51Cr release), SK-BR-3 target cells, CD16158 V/V effector cells [6] [µg/mL] | EC50 of ADCC lysis (51Cr release), TF-1 target cells, CD16158 V/V effector cells [6] [µg/mL]
1 | IGN314, glyco-engineered IGN311 variant expressed in delta-xyl-t/delta-fuc-t double knockout moss (Physcomitrella patens) (antibody) | 0.052 | 0.126 | 0.025 | 40 | 0.008 | 0.144 | 0.366 | 39 | 7 | 15 | – | – | – | – | – | –
2 | B1 | – | – | – | – | – | – | – | – | – | – | 0.301 | 1.56 | 0.993 | 0.315 | 1.04 | 5.32
